# Assay: yeast display, Sf9 membrane polyspecificity reagent, FACS + sequencing; frameworks hold sequencing errors
# How it was run: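 Using colony PCR, genes from sorted yeast display clones were amplified, then sequenced on MiSeq at 2 × 250 and filtered by CDR length. The clones had been stained with 10% biotinylated, detergent-solubilized Sf9 membrane reagent for 1 hour at 4 °C and sorted by FACS into low and high (top ~1%) gates on anti-HA and streptavidin fluorescence. Polyreactivity labels come from the gate of origin.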
row,Sequence,polyreactivity (PSR sort gate)
1,QVQLVESGGGLVQAGGSLRLSCASSGITFWSYAMVWYRQAPGKERELVAAISRGGDSTYYADSVKGRFTISRDNAKNTVYLQMNSLKPEDTAVYDCAALRPREEYYWGHGTQVTVSS,high polyreactivity
2,QVQLVESGGGLVQAGGSLRLSCAASGNIFDYYAMGWYRQAPGKERELVAAISTGTSTYADSVKGRFTISRDNAKNTVYLQMNSLKPQDTAVYYCAADVGIRPLNYNPYNYWGQGTQVTVSS,low polyreactivity
3,QVQLVESGGGLVQAGGSIRLSCAASGNTFRYYAMGWYRQAPGKERELVAGISRRGGSTYYADSVKGRFTISRDNAKNTVYLQMNSLKPEDTAVYYCNAVGGNGAVVAYGYWGQGTQVTVSS,high polyreactivity
4,QVHLVESGGGLVQAGGSLRLSCAASGRIFAGYARGWYRQAPGKERELVAAISDGGTTNYADSVKGRFTISRDNAKNTVYLQMNSLKPEDTAVYYGAKDAAESYRYGYWGQGTQVSVSS,low polyreactivity
5,QVQLVESGGGLVQAGGSLRLSCAASGRTFVVYAMGWYGQAPGKERELVAGITTRVGSTYYADSVKGRFTISRDNAKNTVYLQMNSLKPEDTAVYYCAARGSRYVGRVRYDYWGQGTQVTVSS,high polyreactivity
6,QVQLVESGGGLVQAGCSLRLSCAASGFTFHTYAMGWYRQAPGKERELVAAITGRGGSTYYADSVKGRFTISRDNAKNTVYLQMNSLKPEDTAVYYCTAYRRGWGDRMYYWGLGTQVTVSS,high polyreactivity
7,QDQLVESGAGLVQAGGSLRLSCAASGSTFGIYAMGWSRQAPGKEREFVAAISRSGSSTYYADSVKGRFTISRDNAKNTVYLQMNSLKPEDTAVYYCAAVVRYSQAGYYYWGQGTHVTVSS,high polyreactivity
8,QVQLVESGGGLVQAGGSLRLSCAASGSIFYLYAMGWYRQAPGKERELVADITITGGSTYYADSVKGRFTISRDNAKNTVYLQMNSLKPEDTAVYYCAADEFWFTYRYDYWGQGTQVTVSS,high polyreactivity
9,QVQLVESGGGLVQAGGSLRLSCAASGFIFINYAMGWNRPAPGKERELVAAISSRGGSTYYADSVKGRFTISRDNAKNTVYLQMNSLKPEDTAVYYCNADQSFRIVTFDYWGQGTQVTVSS,high polyreactivity
10,QVQLVESGGGLVQAGGSLRLSCADSGFTFTYYDMGWYRQAPGKERELVAAISSGGSTNYADSVKGRFTISRDNAKNTVYLQMNSLKPEDTAVYYCAASITHYWYGYWGQGTQVTVSS,high polyreactivity
11,QVQLVESGGGLVQAGGSLRLSCAASGSTFYQYAMGWYRQAPGKERELVAAITGSGTRTYYADSVKGRFTISRDNAKNTVYLQMNSLKPEDTAVYYCAAQKYYQGYNYWGQGTQVTVSS,high polyreactivity
12,QVQLVESGGGLVQAGGSLRLSCAASGFTFSWYAMGWYRQAPGKERELVAAISLSGDRTYYADSVKGRFTISRDNANNTVYLQMNSLKPEDTAVYYCVFAFEYWGQGTQVTVSS,low polyreactivity
13,QVQLVESGGGLVQAGGSLRLSCAASGYTFYYYAMGWYRQAPGKERELVAAISWSGGSTYYADSVKGRVTISRDNAKNTVYLQMNSLKPEDTAVYYCAAGVDLYYDLYDYEYWGQGTQVTVSS,low polyreactivity
14,QVQLVESGGGLVQAGGSLRLSCAASGSIFGWNAMGWYRQAPGKERELVAAISSGGSTYYADSVKGRFTISRDNAKNTVYLQMNSLKPQDTAVYYCNAFFQYYDYWGQGTQVTVSS,low polyreactivity
15,QVQLVESGGCLVQAGGSLRLSCAASGLTFADNAMGWYRQAPGKERELVATISYSGGSTYYADSVKGRFTISRDNAKNTVYLQMNSLKPEDTAVYYCAADGNSTGVYLDGGEGFAYDYWGQGSQVTVSS,low polyreactivity
16,QVQLVESGGGLVQAGGSLRLSCAASGRIFYYNTMGWYRQAPGKERELVAAITRSGGSTYYADSVKGRFTISRDNAKNTVYLQMNSLKPEDTAVYYCAARSTHPGSVGYWGQGTQVTVSS,high polyreactivity
17,QVQLVESGGGLVQAGGSLRLSCAASGRTFVHYTMGWYRQAPGKERELVAAISGTGTSTYYADSVKGRFTISRDNAKNTVYLQMNSLKPEDTAVYDCARDPYFGFLIGYPRRDYWGQGTQVTVSS,low polyreactivity
18,QVQLVESGGGLVQAGGSLRLSCAASGFTFSYYGMGWYRQAPGKERELVAAISWSGGRTYYADSVKGRFTISRDNAKNTVYLQMNSLKPEDTAVYYCAASAPRGYGYKYYYWGQGTQVTVSS,high polyreactivity
19,QVQLVESGGGLVQAGGSLRLSCAASGRTFPAYAMGWYRQAPGKERELVAGISKRGGSTYYADSVKGRFTISRDNAKNTVYFQMNSLKPEDTAVYYCNAEGHLFRYDSWGQGTQVTVSS,high polyreactivity
20,QVQLVESGGGLVQAGGSLRLSCAASGITFYDYAMGWYRQAPGKERELVAAISFSGSRTYYADSVKGRFTISRDNAKNTVYLQMNCLKPEDTAVYYCATDTQDLHGYSWFDYWGQGTQVTVSS,high polyreactivity
21,QVQLVESGGGLVQAGGSLRLSCAASGSTIAYYAMGWYRQAPGKERELVAAISKRGGSTYYADSVKGRFTISRDNAKNTVYLQMNSLKPEDTAGYYCATGRSTDKGYYFWGQGTQVTVSS,high polyreactivity

row,Sequence,polyreactivity (PSR sort gate)
1,QVQREESGGGLVQAGGSLRLSGAASGIIFHPYAMGWYRQAPGKERELVAAISWSGDGTYYADSVKGRFTISRDNAKNTVYLQMNSLKPEDTAVYYCNAFSQSWNFYGDGDYWGQGTQLTVSS,low polyreactivity
2,QVQHVESGGGLVQAGRSLRLTSAASGIIFSGYAIGWYRQAPGKERHLVAAISSRCGGTYYADSVKGRFTISRDNAKNTVYFPLNSLKPEDTALYYCAAKRPACIQYSYYYWGQGTQVTVSS,high polyreactivity
3,QVQHVETGGGLVQAGGSLRLSCDASGRIFYNYVMGWYRQAPGKERELVAAISFSSGNTYYADSVKGRFTISRDNAKNSVYLQMNSLTPEDTAVYYCNADIYTWFQIGGYQYDYWGQGTQVTVSS,low polyreactivity
4,QVQLVESGGGLVQAGGSLRLSCAASGFTLGRYAKGWYRQAPGKERELVAAISSGGRTYYADSVKGRFTISRDNAKNTVYLQMNSLKPEDTAVYYCAADPRYISYDYWGQGTQVTVSS,low polyreactivity
5,QGQLVESGGRLVQAGGSLRVSCAASGLTFNYYAMRWYRPAPGKERELVASISRSGGSTYYADSVKGRFTISRDNAKNTVYLQMNSLKPVDTAVYYCAAYRRRTYAVNKEGGYWGQGTQVTVSS,high polyreactivity
6,QVQLVESGGGLVQAGGSLRLSCAASGFTLLGNTMGWSRQAPGKERELVAAIRTNSGRTYYADSVKGRFTISRDNAKNTVYLQMNSLKPEDTAVYYCNAQSYRSDSAYHYNYDYWGQGTQVTVSS,high polyreactivity
7,QVQLVESGGGLVQAGGSLRLSCAASGLIFKYYAMGWYREAPGKERELVATITRGGGSTYYADSVKGRFTISRDNAKNTVYLQMNSLKPEDTAVYYCAADYWYVYPRYNPGDYWGQGTQVTVSS,high polyreactivity
8,QVQLVESGGGLVQAGGSLRLSCAASGSIFSYYAMGWYRQAPGKERELVAAITGGGTTNYADSVKGRFTISRDNAKNTDYLQMNSLKPEDTAVYYCAADEPDVFAPGLYYWGQGTQVTLSS,low polyreactivity
9,QVQLVESGGGLVQAGGSLRLSCAASGFTFTGYAMGWYRQAPGKERELVAAISQSGGSTYADSVKGRFTISRDNAKNTVYLQMNSLKPEDTAVYYCNAATHGPFDYWGQGTQVTVSS,low polyreactivity
10,QVQLVESGGGLVQAGGSLRLSCAASGSTFTINVMGWYRQAPGKERELVAAINGGGRTNYADYVKGRFTISRDNAKNTVYLQMNSLKPEDTAVYYCAADCYTYWFYQLIPDYDYWGQGTQVTVSS,low polyreactivity
11,QVQLVESGGGLVQAGGSLRLSCAASGFIFRSYAMGWYRQAPGKERELVAAITKSGGRTYYADSVKGRFTISRDNAKNTVYLQMNSLKPEDSAVYYCAADQTSYSTSRRYDYWGQGTQVTVSS,high polyreactivity
12,QVQLVESGGGLVQAGGSLRLSCAASGRIFSTNAMGWYRPAPGKERELVAAINWSTGSYVLRRSVKGRFTISRDTAKNTVYLQMNSLKPEDTAVYYCAATWRNPGKATQRYYYWGQGTQVTVSS,high polyreactivity
13,QVQLVESGGGLVQAGGSLRLSCAASGSIFATYAMGWYRQAPGKERELVAAISSSGSRTYYADSVKGRFTISRDNAKNTVYLQMNSLKPEDTAVYYCAKAYLSPYQYDYWGQGTQVTVSS,high polyreactivity
14,QVQLVQSGGGLVQAGGSLRLSCAASGLTLRGNTMGWYRQAPGKEREMVADITASAGSTYYADSVKGRFTISRDNAKNTVYLQMNSLKPEDTAVYYCATVRYDVAAWAYSEYYYWGQGSQVTVSS,low polyreactivity
15,QVQLVESGGGLVQAGGSLRLSCAASGRTFYSYAMGWYRQAPGKERELVAAISSGGTTYYADSVKGRFTISRDNAKNTVYLQMNSLKPEDTAVYYCATSRAWRYRSYYWGQGTQVTVSS,high polyreactivity
16,QVQLVESGGGLVQAGGSLRLSCAASGSIFKRNTMGWYRQAPGKERELVAAISASGGRTYYADSVKGRFTISRDNAKNTVYLQMNSLKPEDTAVYYCNARFRIGRSELDYWGQGTQVTVSS,low polyreactivity
17,QVQLVESGGGLVQAGGSLRLSCAASGFIFGTYAMGWYIQAPGKERELVAAISTGATYYADSVKGRFTISRDNAKNTVYLQMNSLKPEDTAVYYCAAPRTYYLRYRWYLYEGDYWGQGTQVTVTS,low polyreactivity
18,QVQLVESGGGLLQAGGSLRLSCAASVSIFSIYAMGWYRQAPGKERELVAAITLGGGSTYYADSVKGRFTISRDNAKNTVYLQMNCLTPEDTAVYYCAASSVYGYSYWGQGTQVTVSS,high polyreactivity
19,QVQLVESGGGLVQAGGSLRLSCAASGGTFNSNAMGWYRQAPGKERELVASITWRGGTYYADSVKGRFTISRDNAKNTVYLQMNSLKPEDTAVYYCAARGTIPGIHWIYYYWGQGTQVTVSS,high polyreactivity
20,QVQLVESGGGLVQAGGSLRLSCAASGRIFYPNAMGWYRQAPGQERELVAAISLSAGSTYYADSVKGRFTISRDNAKNTVSLQMNSLKPEDTAVYYCATQGNSPRGTRRYGYWGQGTQVTVSS,high polyreactivity
